The text below walks through data of PMC7380959 (Science Advances, 2020).

The target in the test is H77 E1E2 (full-length E1E2, wild type) (Hepatitis C virus genotype 1a, isolate …). The test can be described thus: ELISA. For orientation: ELISA stands for enzyme-linked immunosorbent assay.

B1: 212.1.1 IgG (antibody, V domains shown)
VH: QVQLVQSGAEVKKPGSSVKVSCKASGGTLSSYGISWVRQAPGQGLEWLGGSIPILGTSVYAQKFQGRVTMTADESTSTAHMELSSLRFDDTAIYYCAGVREGMAAISGKNAFDIWGQGTMVTVSS
VL: DIQMTQSPSSLSASVGDRVTITCRASQGISNYLAWYQQKPGKVPKLLIYAASTLQSGVPSRFSGSGYGTEFTLTISSLQPEDVATYYCQQHDNLPLTFGGGTKVEIK
On to B1, for which the binding result is given as “binds”.
